Reference: patent US20040009571A1 (published 2004)

How the values were obtained:
[1] = molecular target: STAT1 N-domain (S12A) (human) (UniProt P42224); test: analytical ultracentrifugation, sedimentation equilibrium; self-association
[2] = molecular target: the molecule itself; test: analytical ultracentrifugation, sedimentation equilibrium; self-association (monomer 15,223 Da)
Method: (§1) As described below, point mutations in STAT1 were introduced at several sites at each of Interface I and II. The point mutation introduced in each of the STAT1 N-domain mutant proteins is indicated in the first column. The approximate molecular weight estimated by sedimentation equilibrium experiments, and migration as a monomer or dimer species on gel filtration analysis, is shown for each mutant protein.
(§2) For gel filtration analysis, 1.5 mg of purified STAT N domain protein in a volume of 500 μl was run on a 120 ml Superdex 75 column at a flow rate of 0.5 ml/min, in 50 mM Tris, pH 8.0, 100 mM NaCl and 1 mM DTT. Equilibrium sedimentation experiments were performed using a Beckman Optima XL-A analytical ultracentrifuge with an An-60 Ti rotor and six-sector cells. STAT N-domain proteins at concentrations of 0.65, 0.32 and 0.16 mg/ml were centrifuged in the gel filtration buffer, at 25,000 rev/min. at 4° C. for 20 h. Subsequently, absorbance measurements at 280 nm were taken in 0.001 cm radial steps and equilibrium was ascertained by comparing scans taken at 1 h intervals. The Optima XL-A/XL-I data analysis software from Beckman Coulter was used for data processing and curve fitting. A partial specific volume of 0.73 cm³/g was used and background absorbance was corrected empirically by allowing the baseline to float during the fitting calculations.

[3] = molecular target: the molecule itself; test: analytical ultracentrifugation, sedimentation equilibrium; self-association
Method: as §1, §2

[4] = molecular target: the molecule itself; test: analytical ultracentrifugation, sedimentation equilibrium (self-association)
Source text: Not only is Interface II more extensive than Interface I, it also involves interactions between hydrophobic residues (unlike the essentially polar nature of Interface I). Certain residues at interface II were individually replaced by Ala (Table 1) and the mutant STAT N-domains were examined for dimerization. […] The results for mutations at the other side of the interface provide evidence for interference with dimer formation. M28A migrated as an intermediate between dimer and monomer on gel filtration analysis, but appeared as a dimer by analytical ultracentrifugation analysis. […] The hydrophobic nature of the residues at positions 77 and 78 is conserved between STAT1 and STAT4, which has leucine residues at both positions. Likewise, Met 28 is conserved in STAT4.
For gel filtration analysis, 1.5 mg of purified STAT N domain protein in a volume of 500 μl was run on a 120 ml Superdex 75 column at a flow rate of 0.5 ml/min, in 50 mM Tris, pH 8.0, 100 mM NaCl and 1 mM DTT. […] Subsequently, absorbance measurements at 280 nm were taken in 0.001 cm radial steps and equilibrium was ascertained by comparing scans taken at 1 h intervals. […] A partial specific volume of 0.73 cm³/g was used and background absorbance was corrected empirically by allowing the baseline to float during the fitting calculations.

[5] = molecular target: the molecule itself; test: gel filtration on Superdex 75 (self-association)
Method: as §2

| Molecule | molecular weight by sedimentation equilibrium [3] [kDa] | other results |
| --- | --- | --- |
| STAT1 N-domain (S12A) (from UniProt P42224 1-124) | – | molecular weight by sedimentation equilibrium [1]: 17 kDa |
| wild type STAT1 N-domain (human STAT1 amino acid residues 1 to 124) (other, UniProt P42224 1-124, looked up, range 1-124; Expressed in E. coli as a GST fusion and released with TEV protease; also called N-domain of human STAT1) MSQWYELQQLDSKFLEQVHQLYDDSFPMEIRQYLAQWLEKQDWEHAANDVSFATIRFHDLLSQLDDQYSRFSLENNFLLQHNIRKSKRNLQDNFQEDPIQMSMIIYSCLKEERKILENAQRFNQ | – | molecular weight by sedimentation equilibrium [2]: ~28 kDa |
| STAT1 N-domain (Q41A) (other, human, UniProt P42224 1-124, looked up, range 1-124; Interface I mutant; GST fusion cleaved with TEV protease) MSQWYELQQLDSKFLEQVHQLYDDSFPMEIRQYLAQWLEKADWEHAANDVSFATIRFHDLLSQLDDQYSRFSLENNFLLQHNIRKSKRNLQDNFQEDPIQMSMIIYSCLKEERKILENAQRFNQ | ~27 | – |
| STAT1 N-domain (W37F) (other, human, UniProt P42224 1-124, looked up, range 1-124; Interface I mutant; GST fusion cleaved with TEV protease; also called N-domain of STAT1 (W37F)) MSQWYELQQLDSKFLEQVHQLYDDSFPMEIRQYLAQFLEKQDWEHAANDVSFATIRFHDLLSQLDDQYSRFSLENNFLLQHNIRKSKRNLQDNFQEDPIQMSMIIYSCLKEERKILENAQRFNQ | ~28 | – |
| STAT1 N-domain (L78A) (other, human, UniProt P42224 1-124, looked up, range 1-124; Interface II mutant; GST fusion cleaved with TEV protease; Its CD spectrum was identical to wild type; also called STAT1 L78A) MSQWYELQQLDSKFLEQVHQLYDDSFPMEIRQYLAQWLEKQDWEHAANDVSFATIRFHDLLSQLDDQYSRFSLENNFALQHNIRKSKRNLQDNFQEDPIQMSMIIYSCLKEERKILENAQRFNQ | – | binding result [4]: no binding (tested: 0.65, 0.32 and 0.16 mg/ml); molecular weight by sedimentation equilibrium [2]: ~15 kDa |
| STAT1 N-domain (M28A) (other, human, UniProt P42224 1-124, looked up, range 1-124; Interface II mutant; GST fusion cleaved with TEV protease) MSQWYELQQLDSKFLEQVHQLYDDSFPAEIRQYLAQWLEKQDWEHAANDVSFATIRFHDLLSQLDDQYSRFSLENNFLLQHNIRKSKRNLQDNFQEDPIQMSMIIYSCLKEERKILENAQRFNQ | ~26 | – |
| STAT1 N-domain (F77A) (other, human, UniProt P42224 1-124, looked up, range 1-124; Interface II mutant; GST fusion cleaved with TEV protease; Its CD spectrum was identical to wild type; also called STAT1 F77A) MSQWYELQQLDSKFLEQVHQLYDDSFPMEIRQYLAQWLEKQDWEHAANDVSFATIRFHDLLSQLDDQYSRFSLENNALLQHNIRKSKRNLQDNFQEDPIQMSMIIYSCLKEERKILENAQRFNQ | – | molecular weight by sedimentation equilibrium [2]: ~15 kDa; binding result [5]: no binding (tested: 1.5 mg in 500 µl) |
| STAT1 N-domain (L15A) (other, human, UniProt P42224 1-124, looked up, range 1-124; Interface II mutant; GST fusion cleaved with TEV protease) MSQWYELQQLDSKFAEQVHQLYDDSFPMEIRQYLAQWLEKQDWEHAANDVSFATIRFHDLLSQLDDQYSRFSLENNFLLQHNIRKSKRNLQDNFQEDPIQMSMIIYSCLKEERKILENAQRFNQ | ~28 | – |
| STAT1 N-domain (Q36A) (other, human, UniProt P42224 1-124, looked up, range 1-124; Interface I mutant; GST fusion cleaved with TEV protease) MSQWYELQQLDSKFLEQVHQLYDDSFPMEIRQYLAAWLEKQDWEHAANDVSFATIRFHDLLSQLDDQYSRFSLENNFLLQHNIRKSKRNLQDNFQEDPIQMSMIIYSCLKEERKILENAQRFNQ | ~29 | – |
| STAT1 N-domain (Q8A) (other, human, UniProt P42224 1-124, looked up, range 1-124; Interface II mutant; GST fusion cleaved with TEV protease) MSQWYELAQLDSKFLEQVHQLYDDSFPMEIRQYLAQWLEKQDWEHAANDVSFATIRFHDLLSQLDDQYSRFSLENNFLLQHNIRKSKRNLQDNFQEDPIQMSMIIYSCLKEERKILENAQRFNQ | ~27 | – |
| STAT1 N-domain (R70A) (other, human, UniProt P42224 1-124, looked up, range 1-124; Interface I mutant; GST fusion cleaved with TEV protease) MSQWYELQQLDSKFLEQVHQLYDDSFPMEIRQYLAQWLEKQDWEHAANDVSFATIRFHDLLSQLDDQYSAFSLENNFLLQHNIRKSKRNLQDNFQEDPIQMSMIIYSCLKEERKILENAQRFNQ | ~27 | – |
| STAT1 N-domain (E29A) (other, human, UniProt P42224 1-124, looked up, range 1-124; Interface II mutant; GST fusion cleaved with TEV protease) MSQWYELQQLDSKFLEQVHQLYDDSFPMAIRQYLAQWLEKQDWEHAANDVSFATIRFHDLLSQLDDQYSRFSLENNFLLQHNIRKSKRNLQDNFQEDPIQMSMIIYSCLKEERKILENAQRFNQ | ~27 | – |
